This test has as its target Orai1-GFP (UniProt Q96D31). The test can be described thus: FRET or BRET. Background: Bioluminescence resonance energy transfer reports proximity on the nanometre scale.

The values that follow come from paper doi:10.1101/2020.03.25.005199.

Chain of UniProt Q96D31 (Q96D31 whole entry): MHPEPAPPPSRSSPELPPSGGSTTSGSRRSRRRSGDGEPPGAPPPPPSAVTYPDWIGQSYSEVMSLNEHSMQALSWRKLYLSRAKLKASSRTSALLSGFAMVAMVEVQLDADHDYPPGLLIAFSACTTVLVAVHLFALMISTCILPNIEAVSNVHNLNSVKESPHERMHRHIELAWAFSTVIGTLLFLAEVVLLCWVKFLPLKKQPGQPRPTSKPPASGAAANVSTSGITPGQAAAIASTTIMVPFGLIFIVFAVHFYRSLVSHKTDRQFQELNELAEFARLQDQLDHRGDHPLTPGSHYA

For “STIM1A-mCherry (from UniProt Q13586) (natural protein)”, the E-FRET is 0.26.
